Results as given in article PMC7980222, “Neuronal non-CG methylation is an essential target for MeCP2 function”.

Legend:
MBD2[MBD] = MBD2[MBD] (human, UniProt Q9UBB5 139-224); test: EMSA; 2 uM protein; poly(dI-dC); BLI: 150 mM NaCl, 10 mM HEPES pH 8.0, 0.05% Tween20, poly(dI-dC) 1 ug/ml; MBD2 EMSA: 20 mM HEPES pH 7.9, 150 mM KCl, 8% Ficoll, 1 mM EDTA, 0.5 mM DTT, poly(dI-dC) 40 ng/ul, RT; N-term EMSA: 10 mM Tris-HCl pH 7.5, 150 mM KCl, 5% glycerol, 0.1 mM EDTA, 0.1 mg/ml BSA, 1 ug poly(dA-dT), on ice; pull-down at 4 C; details: protein: recombinant; tags: N-terminal His6 removed by TEV; residual N-terminal SM; label: 5'-FAM on strand 1; 19 bp, 5' overhang 1 nt each end
MeCP2[MBD] [1] = target: T1, MeCP2[MBD] (mouse (fragment sequence identical in …, UniProt Q9Z2D6 77-167)); test: BLI; poly(dI-dC) 1 ug/ml; BLI: 150 mM NaCl, 10 mM HEPES pH 8.0, 0.05% Tween20, poly(dI-dC) 1 ug/ml; MBD2 EMSA: 20 mM HEPES pH 7.9, 150 mM KCl, 8% Ficoll, 1 mM EDTA, 0.5 mM DTT, poly(dI-dC) 40 ng/ul, RT; N-term EMSA: 10 mM Tris-HCl pH 7.5, 150 mM KCl, 5% glycerol, 0.1 mM EDTA, 0.1 mg/ml BSA, 1 ug poly(dA-dT), on ice; pull-down at 4 C; details: protein: recombinant; tags: pET28 (NdeI/EcoRI), His tag (Ni-NTA purified; tag removal not mentioned); label: 5'-biotin on strand 1; 19 bp, 5' overhang 1 nt each end
MeCP2[MBD] [2] = target: T1, MeCP2[MBD]; test: BLI; poly(dI-dC) 1 ug/ml; main text prints 63.17; BLI: 150 mM NaCl, 10 mM HEPES pH 8.0, 0.05% Tween20, poly(dI-dC) 1 ug/ml; MBD2 EMSA: 20 mM HEPES pH 7.9, 150 mM KCl, 8% Ficoll, 1 mM EDTA, 0.5 mM DTT, poly(dI-dC) 40 ng/ul, RT; N-term EMSA: 10 mM Tris-HCl pH 7.5, 150 mM KCl, 5% glycerol, 0.1 mM EDTA, 0.1 mg/ml BSA, 1 ug poly(dA-dT), on ice; pull-down at 4 C; details: protein: recombinant; tags: pET28 (NdeI/EcoRI), His tag (Ni-NTA purified; tag removal not mentioned); label: 5'-biotin on strand 1; 19 bp, 5' overhang 1 nt each end
MeCP2[N-term] WT [3] = target: T2, MeCP2[N-term] WT (mouse, UniProt Q9Z2D6 1-205); test: EMSA; 0-4.5 uM protein; not different from mCG (p = 0.613); BLI: 150 mM NaCl, 10 mM HEPES pH 8.0, 0.05% Tween20, poly(dI-dC) 1 ug/ml; MBD2 EMSA: 20 mM HEPES pH 7.9, 150 mM KCl, 8% Ficoll, 1 mM EDTA, 0.5 mM DTT, poly(dI-dC) 40 ng/ul, RT; N-term EMSA: 10 mM Tris-HCl pH 7.5, 150 mM KCl, 5% glycerol, 0.1 mM EDTA, 0.1 mg/ml BSA, 1 ug poly(dA-dT), on ice; pull-down at 4 C; details: protein: recombinant; tags: C-terminal 6xHis; label: 32P (T4 PNK); blunt
MM2[N-term] = MM2[N-term] (mouse, UniProt Q9Z2D6 1-93+Q9Z2E1:153-217+165-205, internal_change); test: EMSA; 0-4.5 uM protein; BLI: 150 mM NaCl, 10 mM HEPES pH 8.0, 0.05% Tween20, poly(dI-dC) 1 ug/ml; MBD2 EMSA: 20 mM HEPES pH 7.9, 150 mM KCl, 8% Ficoll, 1 mM EDTA, 0.5 mM DTT, poly(dI-dC) 40 ng/ul, RT; N-term EMSA: 10 mM Tris-HCl pH 7.5, 150 mM KCl, 5% glycerol, 0.1 mM EDTA, 0.1 mg/ml BSA, 1 ug poly(dA-dT), on ice; pull-down at 4 C; details: protein: recombinant; tags: C-terminal 6xHis; label: 32P (T4 PNK); blunt
MeCP2[N-term] WT [4] = target: T2, MeCP2[N-term] WT; test: as above; details: protein: recombinant; tags: C-terminal 6xHis; label: 32P (T4 PNK); blunt

MBD2[MBD], sequence (Q9UBB5 139-224): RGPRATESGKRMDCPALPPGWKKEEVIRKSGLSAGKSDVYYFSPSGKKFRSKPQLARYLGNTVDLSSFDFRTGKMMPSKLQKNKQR

B1: FAM mCG probe (dsDNA)
DNA 1: TCTGGAACGGAATTCTTCTA
DNA 2: ATAGAAGAATTCCGTTCCAG
modifications: 5mC at CG: C8 of strand 1 and probably C13 of strand 2 (underlining lost in text)
binding result (MBD2[MBD]): binds

B2: BLI mCG probe (dsDNA)
DNA 1: TCTGGAACGGAATTCTTCTA
DNA 2: ATAGAAGAATTCCGTTCCAG
modifications: 5mC at CG: C8 of strand 1 and probably C13 of strand 2 (underlining lost in text)
Kd (MeCP2[MBD] [1]): 22.2 nM

B3: BLI mCAT probe (dsDNA)
DNA 1: TCTGGAACATAATTCTTCTA
DNA 2: ATAGAAGAATTATGTTCCAG
modifications: 5mC at CAT: C8 of strand 1 (underlining lost in text)
Kd (MeCP2[MBD] [2]): 63.7 nM

B4: Bdnf mCAC probe (dsDNA)
DNA 1: AAGCATGCAATGCCCTGGAACACAATTCTTCTAATAAAAGATGTATCATTTTAAATGC
DNA 2: GCATTTAAAATGATACATCTTTTATTAGAAGAATTGTGTTCCAGGGCATTGCATGCTT
modifications: 5mC at central CAC: C21 of strand 1 (underlining lost in text)
binding result (MeCP2[N-term] WT [3]): binds
binding result (MM2[N-term]): no binding

B5: Bdnf mCG probe (dsDNA)
DNA 1: AAGCATGCAATGCCCTGGAACGGAATTCTTCTAATAAAAGATGTATCATTTTAAATGC
DNA 2: GCATTTAAAATGATACATCTTTTATTAGAAGAATTCCGTTCCAGGGCATTGCATGCTT
modifications: 5mC at central CG: C21 of strand 1 and probably C37 of strand 2 (underlining lost in text)
binding result (MeCP2[N-term] WT [4]): binds

B6: BLI mCAC probe (dsDNA)
DNA 1: TCTGGAACACAATTCTTCTA
DNA 2: ATAGAAGAATTGTGTTCCAG
modifications: 5mC at CAC: C8 of strand 1 (underlining lost in text)
Kd (MeCP2[MBD] [1]): 13.9 nM
